In patent publication US20190360025A1:

Columns and labels:
[1] = target: vascular endothelial growth factor (VEGF), R&D Systems 293-VE-010 (human) (UniProt P15692); test: c-PLA, human plasma; VEGF 1.00E-11 M
[2] = target: vascular endothelial growth factor (VEGF), R&D Systems 293-VE-010 (human) (UniProt P15692); test: t-PLA, chicken plasma; VEGF 1.00E-14 M
[3] = target: vascular endothelial growth factor (VEGF), R&D Systems 293-VE-010 (human) (UniProt P15692); test: t-PLA, chicken plasma; VEGF 1.00E-11 M
[4] = target: vascular endothelial growth factor (VEGF), R&D Systems 293-VE-010 (human) (UniProt P15692); test: SPR (Biacore T200), 1:1 global fit
[5] = target: vascular endothelial growth factor (VEGF), R&D Systems 293-VE-010 (human) (UniProt P15692); test: t-PLA, human plasma; VEGF 1.00E-13 M
[6] = target: vascular endothelial growth factor (VEGF), R&D Systems 293-VE-010 (human) (UniProt P15692); test: t-PLA, chicken plasma; VEGF 1.00E-08 M
[7] = target: vascular endothelial growth factor (VEGF), R&D Systems 293-VE-010 (human) (UniProt P15692); test: c-PLA with preamplification; VEGF 1.00E-12 M
[8] = target: vascular endothelial growth factor (VEGF), R&D Systems 293-VE-010 (human) (UniProt P15692); test: t-PLA with preamplification; VEGF 1.00E-14 M
[9] = target: vascular endothelial growth factor (VEGF), R&D Systems 293-VE-010 (human) (UniProt P15692); test: t-PLA, buffer; VEGF 1.00E-13 M
[10] = target: vascular endothelial growth factor (VEGF), R&D Systems 293-VE-010 (human) (UniProt P15692); test: t-PLA, buffer; VEGF 1.00E-11 M
[11] = target: vascular endothelial growth factor (VEGF), R&D Systems 293-VE-010 (human) (UniProt P15692); test: c-PLA, chicken plasma; VEGF 1.00E-14 M
[12] = target: vascular endothelial growth factor (VEGF), R&D Systems 293-VE-010 (human) (UniProt P15692); test: t-PLA, buffer; VEGF 1.00E-14 M
[13] = target: vascular endothelial growth factor (VEGF), R&D Systems 293-VE-010 (human) (UniProt P15692); test: t-PLA, chicken plasma; VEGF 1.00E-09 M
[14] = target: vascular endothelial growth factor (VEGF), R&D Systems 293-VE-010 (human) (UniProt P15692); test: c-PLA, chicken plasma; VEGF 1.00E-10 M
[15] = target: vascular endothelial growth factor (VEGF), R&D Systems 293-VE-010 (human) (UniProt P15692); test: t-PLA, buffer; VEGF 1.00E-10 M
[16] = target: vascular endothelial growth factor (VEGF), R&D Systems 293-VE-010 (human) (UniProt P15692); test: t-PLA, human plasma; VEGF 1.00E-09 M
[17] = target: tumor necrosis factor alpha (TNF-α), R&D Systems 210-TA-005 (UniProt P01375); test: SPR (Biacore T200), 1:1 global fit
[18] = target: tumor necrosis factor alpha (TNF-α), R&D Systems 210-TA-005 (UniProt P01375); test: t-PLA 10X probes, buffer; TNF-α 1.00E-10 M
[19] = target: tumor necrosis factor alpha (TNF-α), R&D Systems 210-TA-005 (UniProt P01375); test: t-PLA 1X probes, human plasma; TNF-α 1.00E-12 M
[20] = target: tumor necrosis factor alpha (TNF-α), R&D Systems 210-TA-005 (UniProt P01375); test: c-PLA 10X probes, buffer; TNF-α 1.00E-08 M
[21] = target: tumor necrosis factor alpha (TNF-α), R&D Systems 210-TA-005 (UniProt P01375); test: c-PLA 10X probes, human plasma; TNF-α 1.00E-10 M
[22] = target: tumor necrosis factor alpha (TNF-α), R&D Systems 210-TA-005 (UniProt P01375); test: t-PLA 10X probes, buffer; TNF-α 5.00E-07 M
[23] = target: tumor necrosis factor alpha (TNF-α), R&D Systems 210-TA-005 (UniProt P01375); test: c-PLA 1X probes, buffer; TNF-α 1.00E-09 M
[24] = target: tumor necrosis factor alpha (TNF-α), R&D Systems 210-TA-005 (UniProt P01375); test: t-PLA 10X probes, human plasma; TNF-α 1.00E-10 M
[25] = target: tumor necrosis factor alpha (TNF-α), R&D Systems 210-TA-005 (UniProt P01375); test: c-PLA 1X probes, human plasma; TNF-α 1.00E-09 M
[26] = target: tumor necrosis factor alpha (TNF-α), R&D Systems 210-TA-005 (UniProt P01375); test: t-PLA 10X probes, buffer; TNF-α 1.00E-11 M
[27] = target: tumor necrosis factor alpha (TNF-α), R&D Systems 210-TA-005 (UniProt P01375); test: t-PLA 10X probes, buffer; TNF-α 1.00E-08 M
[28] = target: tumor necrosis factor alpha (TNF-α), R&D Systems 210-TA-005 (UniProt P01375); test: t-PLA 1X probes, buffer; TNF-α 1.00E-08 M

Chain of UniProt P01375 (P01375 77-233 limits assumed): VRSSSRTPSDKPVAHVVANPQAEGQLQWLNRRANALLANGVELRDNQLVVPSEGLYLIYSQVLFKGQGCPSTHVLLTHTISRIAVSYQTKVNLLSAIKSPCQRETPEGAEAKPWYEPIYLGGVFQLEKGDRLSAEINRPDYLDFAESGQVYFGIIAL
Chain of UniProt P15692 (P15692 other isoform, or with tags, fused parts or gaps limits assumed): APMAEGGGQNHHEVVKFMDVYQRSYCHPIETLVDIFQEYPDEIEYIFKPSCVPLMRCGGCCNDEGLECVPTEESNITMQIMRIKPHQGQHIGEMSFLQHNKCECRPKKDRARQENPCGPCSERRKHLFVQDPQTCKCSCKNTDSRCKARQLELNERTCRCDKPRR

affinity-purified polyclonal anti-VEGF antibody (R&D Systems AF-293-NA)
Counts [1]: 1770 | SBR [1]: 6.8 | Counts [2]: 71600 | SBR [2]: 1.1 | Counts [3]: 7.94e+06 | SBR [3]: 119 | Kd [4]: 3.6 pM | Counts [5]: 1.79e+06 | SBR [5]: 1.1 | Counts [6]: 1.49e+08 | SBR [6]: 2230 | Counts [7]: 516000 | SBR [7]: 8.7 | Counts [8]: 363000 | Counts [9]: 1.61e+06 | Counts [10]: 4.21e+07 | SBR [10]: 122 | Counts [11]: 10.7 | SBR [11]: 1.2 | Counts [12]: 595000 | SBR [12]: 1.7 | Counts [13]: 2.39e+08 | SBR [13]: 3580 | Counts [14]: 26800 | SBR [14]: 2900 | Counts [15]: 7.59e+08 | SBR [15]: 2190 | Counts [16]: 1.4e+08 | SBR [16]: 86

affinity-purified polyclonal anti-TNF-α antibody (R&D Systems AF-210-NA)
Kd [17]: 0.279 nM | Counts [18]: 2.75e+07 | SBR [18]: 4.8 | Counts [19]: 154000 | Counts [20]: 359000 | SBR [20]: 1960 | Counts [21]: 7420 | Counts [22]: 2.24e+09 | SBR [22]: 392 | Counts [23]: 3700 | SBR [23]: 232 | Counts [24]: 1.44e+07 | SBR [24]: 1.3 | Counts [25]: 1310 | SBR [25]: 17 | Counts [26]: 7.03e+06 | SBR [26]: 1.2 | Counts [27]: 1.33e+09 | SBR [27]: 233 | Counts [28]: 5.4e+07 | SBR [28]: 65
